Measured values taken from patent publication US20240002497A1 (Merck Sharp & Dohme, published 2024).

Tests used:
[1] = biological target: T1, huNav1.7α (human Nav1.7 alpha subunit, expressed without β subunits) (human, UniProt Q15858 1-1988); experiment: binding FACS, HEKa cells
T1 construct: also called HEK293 human Nav1.7α; HEKa Nav1.7α

[2] = biological target: T2, huNav1.7α + β1 (human Nav1.7α co-expressed with Navβ1) (human, UniProt Q15858 1-1988; Q07699 19-218); experiment: binding FACS, HEKa/β1 cells
T2 construct: also called HEK293 human Nav1.7α + β1; HEKa/β1 Nav1.7α

huNav1.7α+β1 = biological target: T3, huNav1.7α+β1 (human, UniProt Q15858 1-1988; Q07699 19-218); experiment: binding FACS, HEKa/β1 cells
T3 construct: also called huNav1.7-beta1; HEKa/β1
Procedure, shortened: (§1)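 Assessment used purified FLAG3-tagged ISVD incubated on cells for 30 minutes at 4° C in PBS containing 10% FBS and NaN₃, with cells washed between steps. Propidium iodide (1 μg/mL) staining removed dead cells from analysis.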

huNav1.7α = biological target: T4, huNav1.7α (human, UniProt Q15858 1-1988); experiment: binding FACS, HEKa cells
T4 construct: HEK cells expressing the α subunit alone; also called HEKa; HEK huNav1.7α
Protocol: Binding of the ISVDs to cell-expressed Nav1.7α was detected via murine anti-Flag (Sigma, catalog #F1804). Briefly, cells were resuspended in FACS buffer (PBS, 10% FBS, NaN₃) and transferred to a 96-well V-bottom plate at 1×10^5 cells/well. Purified FLAG3-tagged ISVD was diluted in FACS buffer and added to the cells for 30 minutes at 4° C. […] Prior to the read-out, the samples were resuspended in 1 μg/mL propidium iodide (Sigma, catalog #P4170) to exclude dead cells. Between each step, the cells were centrifuged for 5 minutes at 200 grams and washed with 100 μL/well FACS buffer.

huNav1.7α+β1-β2-β3 = biological target: T5, huNav1.7α+β1-β2-β3 (human, UniProt Q15858 1-1988; Q07699 19-218; O60939 30-215; Q9NY72 23-215); experiment: binding FACS, CHO FlpIn cells
T5 construct: 5N11S variant; also called huNav1.7-beta1-beta2-beta3; huNav1.7α+Navβ1-Navβ2-Navβ3
Procedure, shortened: as §1

EC50 [1] | EC50 [2] | EC50 (huNav1.7α+β1) | EC50 (huNav1.7α) | EC50 (huNav1.7α+β1-β2-β3) | Bmax [1] | Binder
1.8 nM | 1.4 nM | – | – | – | – | F010301556 (VHH, also called F0103387G05(D23A, D53G, D54G, D58G)) VHH: EVQLVESGGGLVQAGGSLRLSCAASGRILRIGYMRWHRQGAGKQREFVARITGGSATGYADSVKGRFTISRDNAKNTVYLQMNNLNPEDTAVYYCEALVTASVRGGSIHSGTYWGRGTLVTVSS [F010301556, listing 1 of 2 here]
– | – | 1.4 nM | 1.8 nM | 2.3 nM | – | F010301556 (VHH, also called F0103387G05(D23A, D53G, D54G, D58G)) VHH: EVQLVESGGGLVQAGGSLRLSCAASGRILRIGYMRWHRQGAGKQREFVARITGGSATGYADSVKGRFTISRDNAKNTVYLQMNNLNPEDTAVYYCEALVTASVRGGSIHSGTYWGRGTLVTVSS [F010301556, listing 2 of 2 here]
3 nM | 1.8 nM | – | – | – | 100% | F010301849 (VHH, also called F0103387G05(L11V, A14P, D23A, G40A, A41P, D58G, N82bS, N83R, V89L, R105Q)) VHH: EVQLVESGGGVVQPGGSLRLSCAASGRILRIGYMRWHRQAPGKQREFVARITDDSATGYADSVKGRFTISRDNAKNTVYLQMNSLRPEDTALYYCEALVTASVRGGSIHSGTYWGQGTLVTVSS
– | – | 2.3 nM | 2.5 nM | 4.5 nM | – | F010301372 (VHH, vs 387G05: S100dG) VHH: EVQLVESGGGLVQAGGSLRLSCDASGRILRIGYMRWHRQGAGKQREFVARITDDSATDYADSVKGRFTISRDNAKNTVYLQMNNLNPEDTAVYYCEALVTASVRGGGIHSGTYWGRGTLVTVSS
– | – | 0.93 nM | 1.5 nM | 1.8 nM | – | F010301558 (VHH, vs 387G05: D23A, D53G, D58G) VHH: EVQLVESGGGLVQAGGSLRLSCAASGRILRIGYMRWHRQGAGKQREFVARITGDSATGYADSVKGRFTISRDNAKNTVYLQMNNLNPEDTAVYYCEALVTASVRGGSIHSGTYWGRGTLVTVSS
– | – | 1 nM | 1.2 nM | 2.2 nM | – | F010301566 (VHH, vs 387G05: D54G, D58G) VHH: EVQLVESGGGLVQAGGSLRLSCDASGRILRIGYMRWHRQGAGKQREFVARITDGSATGYADSVKGRFTISRDNAKNTVYLQMNNLNPEDTAVYYCEALVTASVRGGSIHSGTYWGRGTLVTVSS
– | – | 1.9 nM | 1.2 nM | 2.5 nM | – | F010301562 (VHH, vs 387G05: D23A, D54G) VHH: EVQLVESGGGLVQAGGSLRLSCAASGRILRIGYMRWHRQGAGKQREFVARITDGSATDYADSVKGRFTISRDNAKNTVYLQMNNLNPEDTAVYYCEALVTASVRGGSIHSGTYWGRGTLVTVSS
– | – | 2.4 nM | 1.9 nM | 3.5 nM | – | F010301564 (VHH, vs 387G05: D53G, D54G) VHH: EVQLVESGGGLVQAGGSLRLSCDASGRILRIGYMRWHRQGAGKQREFVARITGGSATDYADSVKGRFTISRDNAKNTVYLQMNNLNPEDTAVYYCEALVTASVRGGSIHSGTYWGRGTLVTVSS
1.5 nM | 1 nM | – | – | – | – | F010301563 (VHH, also called F0103387G05(D23A, D58G)) VHH: EVQLVESGGGLVQAGGSLRLSCAASGRILRIGYMRWHRQGAGKQREFVARITDDSATGYADSVKGRFTISRDNAKNTVYLQMNNLNPEDTAVYYCEALVTASVRGGSIHSGTYWGRGTLVTVSS
– | – | 2.1 nM | 2 nM | 3.8 nM | – | F010301557 (VHH, vs 387G05: D23A, D53G, D54G) VHH: EVQLVESGGGLVQAGGSLRLSCAASGRILRIGYMRWHRQGAGKQREFVARITGGSATDYADSVKGRFTISRDNAKNTVYLQMNNLNPEDTAVYYCEALVTASVRGGSIHSGTYWGRGTLVTVSS
– | – | 0.92 nM | 0.87 nM | 1.8 nM | – | F010301559 (VHH, vs 387G05: D23A, D54G, D58G) VHH: EVQLVESGGGLVQAGGSLRLSCAASGRILRIGYMRWHRQGAGKQREFVARITDGSATGYADSVKGRFTISRDNAKNTVYLQMNNLNPEDTAVYYCEALVTASVRGGSIHSGTYWGRGTLVTVSS
